The results in this text go back to PMC3384312 (Nucleic Acids Research, 2012).

5‑acetamidofluorescein = fluorescein label from 5-iodoacetamidofluorescein attached at Cys

Data set [1] concerns the target T1, MEF2A (1-95) (UniProt Q02078 1-95).
T1 sequence: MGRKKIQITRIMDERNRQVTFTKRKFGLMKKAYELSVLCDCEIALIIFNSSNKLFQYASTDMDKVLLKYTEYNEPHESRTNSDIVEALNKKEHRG
The experiment in a line: SPR. Background: In SPR one partner is held on a chip, and binding of the other changes the refractive index at the surface.

Data set [2] deals with T1, MEF2A (1-95). The experiment in a line: fluorescence polarisation. Background: In fluorescence polarisation assays a small probe gives low polarisation when free and higher when bound to something large.
The data set “crystal structure” deals with the molecule itself. Kind of data set: crystal structure.

B1: HDAC4 (AA 155-220) (domain or fragment)
chain: LKNKEKGKESAVASTEVKMKLQEFVLNKKKALAHRNLNHCISSDPRYWYGKTQHSSLDQSSPPQSG
As for B1, the binding result in the data set with MEF2A (1-95) [1] is on record as “binds”.

B2: HDAC4 fragment (AA 155-218) labeled by 5-Iodoacetamidofluorescein via Cys194 (domain or fragment, UniProt P56524 155-218, looked up)
chain: LKNKEKGKESAVASTEVKMKLQEFVLNKKKALAHRNLNHC(5‑acetamidofluorescein)ISSDPRYWYGKTQHSSLDQSSPPQ
As for B2, the binding result with MEF2A (1-95) [2] was “binds”.

B3: MEF2A (1-78) (domain or fragment)
chain: MGRKKIQITRIMDERNRQVTFTKRKFGLMKKAYELSVLCDCEIALIIFNSSNKLFQYASTDMDKVLLKYTEYNEPHES
Take B3: the binding result in “crystal structure” is recorded as “binds”.
